Patent US20030078191A1 (published 2003)

T1: B42-FtsZ fusion (pB42-FtsZ, SHp256) (Escherichia coli, UniProt P0A9A6 1-383)
T1 construct: Yeast two-hybrid prey; entire FtsZ gene cloned into pB42
T1 sequence: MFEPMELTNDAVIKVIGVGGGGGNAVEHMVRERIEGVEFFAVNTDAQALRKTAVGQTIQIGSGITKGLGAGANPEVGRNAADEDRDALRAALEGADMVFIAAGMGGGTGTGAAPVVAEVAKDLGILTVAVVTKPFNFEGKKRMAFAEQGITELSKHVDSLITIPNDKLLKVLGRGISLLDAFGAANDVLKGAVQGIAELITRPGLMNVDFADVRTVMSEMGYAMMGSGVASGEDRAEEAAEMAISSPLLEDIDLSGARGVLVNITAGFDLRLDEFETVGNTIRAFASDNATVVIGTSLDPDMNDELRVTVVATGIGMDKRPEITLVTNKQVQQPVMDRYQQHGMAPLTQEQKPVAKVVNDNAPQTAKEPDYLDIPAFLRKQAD

T2: Gal4 activation domain alone (pGAD424 vector, no fusion) (UniProt P04386 768-881)
T2 sequence (looked up): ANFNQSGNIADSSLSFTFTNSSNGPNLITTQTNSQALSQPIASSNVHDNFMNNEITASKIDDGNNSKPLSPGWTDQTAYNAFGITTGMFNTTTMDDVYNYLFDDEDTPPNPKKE

T3: Gal4ad-FtsA fusion (UniProt P0ABH0 1-420)
T3 sequence: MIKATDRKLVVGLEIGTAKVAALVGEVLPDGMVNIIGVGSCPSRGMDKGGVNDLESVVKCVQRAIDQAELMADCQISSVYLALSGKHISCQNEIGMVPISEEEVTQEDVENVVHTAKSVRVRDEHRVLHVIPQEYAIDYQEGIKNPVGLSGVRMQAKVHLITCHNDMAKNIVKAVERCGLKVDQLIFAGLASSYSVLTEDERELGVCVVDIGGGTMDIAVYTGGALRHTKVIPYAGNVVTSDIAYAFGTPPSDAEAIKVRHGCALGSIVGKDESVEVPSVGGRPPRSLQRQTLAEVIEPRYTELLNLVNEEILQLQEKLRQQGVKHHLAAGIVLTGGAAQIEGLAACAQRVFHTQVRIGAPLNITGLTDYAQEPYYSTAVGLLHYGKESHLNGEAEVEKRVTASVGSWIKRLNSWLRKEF

B1: LexA-OrfE fusion (kil as a fusion to the LexA DNA-binding protein) (other)
chain: MKALTARQQEVFDLIRDHISQTGMPPTRAEIAQRLGFRSPNAAEEHLKALARKGVIEIVSGASRGIRLLQEEEEGLPLVGRVAAGEPLLAQQHIEGHYQVDPSLFKPNADFLLRVSGMSMKDIGIMDGDLLAVHKTQDVRNGQVVVARIDDEVTVKRLKKQGNKVELLPENSEFKPIVVDLRQQSFTIEGLAVGVIRNGDWLMIAHHFGTDEIPRQCVTPGDYVLHEGRTYIASANNIKKRKLYIRNLTTKTFITDRMIKVFLGRDGLPVKAESW
B2: Gal4bd-FtsZ(311-383) fusion (pAS2-1-FtsZ(311-383), SHp102) (other)
chain: MKLLSSIEQACDICRLKKLKCSKEKPKCAKCLKNNWECRYSPKTKRSPLTRAHLTEVESRLERLEQLFLLIFPREDLDMILKMDSLQDIKALLTGLFVQDNVNKDAVTDRLASVETDMPLTLRQHRISATSSSEESSNKGQRQLTVSVATGIGMDKRPEITLVTNKQVQQPVMDRYQQHGMAPLTQEQKPVAKVVNDNAPQTAKEPDYLDIPAFLRKQAD
B3: Gal4bd-OrfE fusion (pAS2-1 fusion of kil) (other)
chain: MKLLSSIEQACDICRLKKLKCSKEKPKCAKCLKNNWECRYSPKTKRSPLTRAHLTEVESRLERLEQLFLLIFPREDLDMILKMDSLQDIKALLTGLFVQDNVNKDAVTDRLASVETDMPLTLRQHRISATSSSEESSNKGQRQLTVSMIAHHFGTDEIPRQCVTPGDYVLHEGRTYIASANNIKKRKLYIRNLTTKTFITDRMIKVFLGRDGLPVKAESW
notes: also called Gal4bd-Kil
B4: LexA alone (pLexA vector, SHp40) (other)
chain: MKALTARQQEVFDLIRDHISQTGMPPTRAEIAQRLGFRSPNAAEEHLKALARKGVIEIVSGASRGIRLLQEEEEGLPLVGRVAAGEPLLAQQHIEGHYQVDPSLFKPNADFLLRVSGMSMKDIGIMDGDLLAVHKTQDVRNGQVVVARIDDEVTVKRLKKQGNKVELLPENSEFKPIVVDLRQQSFTIEGLAVGVIRNGDWL

Assays:
[1] = target: T1, B42-FtsZ fusion (pB42-FtsZ, SHp256); assay: yeast two-hybrid (LexA fusion x B42 fusion), growth on plates without histidine
[2] = target: T2, Gal4 activation domain alone (pGAD424 …); assay: cell-based or functional assay
[3] = target: Gal4ad-ZipA(35-284) fusion (pGAD424 fusion) (Escherichia coli); assay: cell-based or functional assay
[4] = target: Gal4ad-ZipA(35-185) fusion (pGAD424 fusion) (Escherichia coli); assay: cell-based or functional assay
[5] = target: Gal4ad-ZipA(185-302) fusion (pGAD424 fusion) (Escherichia coli); assay: cell-based or functional assay
[6] = target: Gal4ad-ZipA(185-328) fusion (pGAD424 fusion) (Escherichia coli, UniProt P77173 185-328); assay: cell-based or functional assay
[7] = target: Gal4ad-ZipA(62-328) fusion (pGAD424 fusion) (Escherichia coli); assay: cell-based or functional assay
Gal4ad-FtsA fusion = target: T3, Gal4ad-FtsA fusion; assay: yeast two-hybrid, Gal4 system
[8] = target: T1, B42-FtsZ fusion (pB42-FtsZ, SHp256); assay: yeast two-hybrid (LexA/B42), LEU2 and lacZ reporters, haploids and diploids

Binder | binding result [1] | beta-galactosidase (lacZ reporter) activity, MUG fluorescence, yeast two-hybrid [2] [units] | beta-galactosidase (lacZ reporter) activity, MUG fluorescence, yeast two-hybrid [3] [units] | beta-galactosidase (lacZ reporter) activity, MUG fluorescence, yeast two-hybrid [4] [units] | beta-galactosidase (lacZ reporter) activity, MUG fluorescence, yeast two-hybrid [5] [units] | beta-galactosidase (lacZ reporter) activity, MUG fluorescence, yeast two-hybrid [6] [units] | beta-galactosidase (lacZ reporter) activity, MUG fluorescence, yeast two-hybrid [7] [units] | binding result (Gal4ad-FtsA fusion) | binding result [8]
B1 | no binding | – | – | – | – | – | – | – | –
B2 | – | 997 | 8620 | 971 | 828 | 2630 | 7430 | – | –
B3 | – | 1230 | 7580 | 1140 | 721 | 1910 | 8530 | no binding | –
B4 | – | – | – | – | – | – | – | – | no binding
